Laboratory results published in patent US20180155451A1 (published 2018).

T1: FcγRIIb (human, UniProt P31994 43-217)
T1 construct: extracellular domain; Soluble extracellular domain with C-terminal His tag, used as analyte in Biacore; also called FcgRIIb; 2b; not shown: His tag attached to the C terminus
T1 sequence (looked up): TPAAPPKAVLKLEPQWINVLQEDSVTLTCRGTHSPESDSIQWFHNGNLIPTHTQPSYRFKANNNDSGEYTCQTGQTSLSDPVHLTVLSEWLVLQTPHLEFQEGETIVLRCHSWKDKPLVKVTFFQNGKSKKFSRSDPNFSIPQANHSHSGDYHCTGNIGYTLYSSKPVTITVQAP

T2: FcγRIIa R (FcγRIIa, allotype R, Arg at position 131), extracellular domain with C-terminal His tag (human, UniProt P12318 34-217)
T2 construct: extracellular domain; soluble receptor used as Biacore analyte; also called 2aR; FcgRIIa R
T2 sequence (looked up): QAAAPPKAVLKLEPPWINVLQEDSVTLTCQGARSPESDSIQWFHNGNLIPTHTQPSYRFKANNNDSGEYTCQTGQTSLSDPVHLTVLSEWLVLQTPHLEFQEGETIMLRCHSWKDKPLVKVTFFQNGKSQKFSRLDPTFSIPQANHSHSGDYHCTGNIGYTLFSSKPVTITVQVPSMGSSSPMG

T3: FcγRIIb, extracellular domain with C-terminal His tag (human, UniProt P31994 43-217)
T3 construct: extracellular domain; soluble receptor used as Biacore analyte; also called 2b; FcgRIIb
T3 sequence (looked up): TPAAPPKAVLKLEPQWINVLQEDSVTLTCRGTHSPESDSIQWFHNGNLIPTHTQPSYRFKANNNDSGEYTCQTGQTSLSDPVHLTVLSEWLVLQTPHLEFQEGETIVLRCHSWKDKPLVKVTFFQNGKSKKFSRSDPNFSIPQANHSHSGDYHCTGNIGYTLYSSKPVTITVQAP


Assays:
FcγRIa = target: T4, FcγRIa (human, UniProt P12314 16-292); assay: SPR (Biacore), antibody captured on antigen peptide, FcγR as analyte; relative to GpH7-A5/GpH7-B3/GpL16-k0 = 100
T4 construct: extracellular domain; Soluble extracellular domain with C-terminal His tag, used as analyte in Biacore; also called FcgRI; 1a; not shown: His tag attached to the C terminus

FcγRIIb = target: T1, FcγRIIb; assay: as above
[1] = target: T2, FcγRIIa R (FcγRIIa, allotype R, Arg at …); assay: Biacore SPR; binding relative to GpH7-A5/GpH7-B3/GpL16-k0 (=100)
Protocol: (§1) The heterodimerized antibodies He Abs in which one of the H chains was introduced with an alteration were assayed for their binding activities to each activating FcγR and inhibitory FcγR according to the method described in Example 4. […] The activating FcγRs in FIGS. 26, 27, 28, and 29 are FcγRIa, FcγRIIa (R), FcγRIIa (H), and FcγRIIIa, respectively.
(§2) Analysis of interaction between objective antibody and the FcγR was carried out using Biacore T100 (GE Healthcare). HBS-EP+ (GE Healthcare) was used as the running buffer, and the measurement temperature was set to 25° C. Chips produced by immobilizing the antigen peptide by the amine coupling method to a Series S Sencor Chip CM5 (GE Healthcare), or alternatively, chips produced by allowing preliminarily biotinylated antigen peptides to interact with and immobilize onto a Series S Sensor Chip SA (certified) (GE Healthcare) were used. Antibodies of interest were captured onto an antigen peptide-immobilized chip, and allowed to interact to each FcγR diluted with running buffer. To regenerate and repeatedly use the chip, the antibodies captured on the chip were washed off by reacting 10 mM glycine-HCl, pH 1.5.

[2] = target: T3, FcγRIIb, extracellular domain with …; assay: as above
Protocol: as §1, §2

T4 sequence (P12314 16-292): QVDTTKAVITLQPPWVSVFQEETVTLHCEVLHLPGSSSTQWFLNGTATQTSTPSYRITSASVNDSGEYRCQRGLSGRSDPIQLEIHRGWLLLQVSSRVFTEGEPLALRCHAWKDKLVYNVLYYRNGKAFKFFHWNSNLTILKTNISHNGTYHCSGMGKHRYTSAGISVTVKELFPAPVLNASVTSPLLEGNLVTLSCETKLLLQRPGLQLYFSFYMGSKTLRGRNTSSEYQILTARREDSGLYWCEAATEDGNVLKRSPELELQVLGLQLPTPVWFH

Binder | He/Con_1a (FcγRIa) | He/Con_2b (FcγRIIb) | He/Con_2aR (IIaR binding) [1] | He/Con_2b (IIb binding) [2]
GpH7-A5/GpH7-B3 variant S239_06M/GpL16-k0 (antibody, human IgG1, kappa, Heterodimerized IgG1; mutation in the GpH7-B3 H chain only; also called He Ab) heavy 1: not shown heavy 2: not shown light: DIVMTQSPLSLPVTPGEPASISCQASESLVHSNRNTYLHWYLQKPGQSPQLLIYKVSNRFSGVPDRFSGSGSGTDFTLKISRVEAEDVGVYYCSQNTHVPPTFGQGTKVEIERTVAAPSVFIFPPSDEQLKSGTASVVCLLNNFYPREAKVQWKVDNALQSGNSQESVTEQDSKDSTYSLSSTLTLSKADYEKHKVYACEVTHQGLSSPVTKSFNRGEC | 99 % of control | 101 % of control | – | –
GpH7-A5/GpH7-B3 variant S239_07I/GpL16-k0 (antibody, human IgG1, kappa, Heterodimerized IgG1; mutation in the GpH7-B3 H chain only; also called He Ab) heavy 1: not shown heavy 2: not shown light: DIVMTQSPLSLPVTPGEPASISCQASESLVHSNRNTYLHWYLQKPGQSPQLLIYKVSNRFSGVPDRFSGSGSGTDFTLKISRVEAEDVGVYYCSQNTHVPPTFGQGTKVEIERTVAAPSVFIFPPSDEQLKSGTASVVCLLNNFYPREAKVQWKVDNALQSGNSQESVTEQDSKDSTYSLSSTLTLSKADYEKHKVYACEVTHQGLSSPVTKSFNRGEC | 97.8 % of control | 107 % of control | – | –
heterodimerized antibody GpH7-A5/GpH7-B3 variant A327_01G/GpL16-k0 (antibody, human IgG1, kappa, He Ab: anti-glypican-3 IgG1, alteration in one H chain only; also called He Ab) heavy 1: not shown heavy 2: not shown light: DIVMTQSPLSLPVTPGEPASISCQASESLVHSNRNTYLHWYLQKPGQSPQLLIYKVSNRFSGVPDRFSGSGSGTDFTLKISRVEAEDVGVYYCSQNTHVPPTFGQGTKVEIERTVAAPSVFIFPPSDEQLKSGTASVVCLLNNFYPREAKVQWKVDNALQSGNSQESVTEQDSKDSTYSLSSTLTLSKADYEKHKVYACEVTHQGLSSPVTKSFNRGEC | – | – | 98.2 % of control | 116 % of control
heterodimerized antibody GpH7-A5/GpH7-B3 variant I332_02A/GpL16-k0 (antibody, human IgG1, kappa, He Ab: anti-glypican-3 IgG1, alteration in one H chain only; also called He Ab) heavy 1: not shown heavy 2: not shown light: DIVMTQSPLSLPVTPGEPASISCQASESLVHSNRNTYLHWYLQKPGQSPQLLIYKVSNRFSGVPDRFSGSGSGTDFTLKISRVEAEDVGVYYCSQNTHVPPTFGQGTKVEIERTVAAPSVFIFPPSDEQLKSGTASVVCLLNNFYPREAKVQWKVDNALQSGNSQESVTEQDSKDSTYSLSSTLTLSKADYEKHKVYACEVTHQGLSSPVTKSFNRGEC | – | – | 97.6 % of control | 103 % of control

Now from value to binder:

He/Con_1a (FcγRIa) | He/Con_2b (FcγRIIb) | He/Con_2aR (IIaR binding) [1] | He/Con_2b (IIb binding) [2] | Binder
– | – | – | 12.2 % of control | heterodimerized antibody GpH7-A5/GpH7-B3 variant S267_11K/GpL16-k0 (antibody, human IgG1, kappa, He Ab: anti-glypican-3 IgG1, alteration in one H chain only; also called He Ab) heavy 1: not shown heavy 2: not shown light: DIVMTQSPLSLPVTPGEPASISCQASESLVHSNRNTYLHWYLQKPGQSPQLLIYKVSNRFSGVPDRFSGSGSGTDFTLKISRVEAEDVGVYYCSQNTHVPPTFGQGTKVEIERTVAAPSVFIFPPSDEQLKSGTASVVCLLNNFYPREAKVQWKVDNALQSGNSQESVTEQDSKDSTYSLSSTLTLSKADYEKHKVYACEVTHQGLSSPVTKSFNRGEC
– | – | – | 11.3 % of control | heterodimerized antibody GpH7-A5/GpH7-B3 variant S267_12R/GpL16-k0 (antibody, human IgG1, kappa, He Ab: anti-glypican-3 IgG1, alteration in one H chain only; also called He Ab) heavy 1: not shown heavy 2: not shown light: DIVMTQSPLSLPVTPGEPASISCQASESLVHSNRNTYLHWYLQKPGQSPQLLIYKVSNRFSGVPDRFSGSGSGTDFTLKISRVEAEDVGVYYCSQNTHVPPTFGQGTKVEIERTVAAPSVFIFPPSDEQLKSGTASVVCLLNNFYPREAKVQWKVDNALQSGNSQESVTEQDSKDSTYSLSSTLTLSKADYEKHKVYACEVTHQGLSSPVTKSFNRGEC
– | – | – | 0.4 % of control | heterodimerized antibody GpH7-A5/GpH7-B3 variant V266_05P/GpL16-k0 (antibody, human IgG1, kappa, He Ab: anti-glypican-3 IgG1, alteration in one H chain only; also called He Ab) heavy 1: not shown heavy 2: not shown light: DIVMTQSPLSLPVTPGEPASISCQASESLVHSNRNTYLHWYLQKPGQSPQLLIYKVSNRFSGVPDRFSGSGSGTDFTLKISRVEAEDVGVYYCSQNTHVPPTFGQGTKVEIERTVAAPSVFIFPPSDEQLKSGTASVVCLLNNFYPREAKVQWKVDNALQSGNSQESVTEQDSKDSTYSLSSTLTLSKADYEKHKVYACEVTHQGLSSPVTKSFNRGEC
– | – | – | 1 % of control | heterodimerized antibody GpH7-A5/GpH7-B3 variant V266_11K/GpL16-k0 (antibody, human IgG1, kappa, He Ab: anti-glypican-3 IgG1, alteration in one H chain only; also called He Ab) heavy 1: not shown heavy 2: not shown light: DIVMTQSPLSLPVTPGEPASISCQASESLVHSNRNTYLHWYLQKPGQSPQLLIYKVSNRFSGVPDRFSGSGSGTDFTLKISRVEAEDVGVYYCSQNTHVPPTFGQGTKVEIERTVAAPSVFIFPPSDEQLKSGTASVVCLLNNFYPREAKVQWKVDNALQSGNSQESVTEQDSKDSTYSLSSTLTLSKADYEKHKVYACEVTHQGLSSPVTKSFNRGEC
